Reference: patent US20140087995A1 (published 2014)
Numbered stars: 1 amine (or outer) side, 2 acyl side, 3 side chain; on linkers, the order of the positions; unused ones are H or OH. Bridge positions count the residues as written; N and C are the ends. Square brackets hold non-standard residues; d marks the D form. Side chains are listed from the residue outwards. Ends that are not written are not given here. * marks the point of attachment. C20 diacid = O=C(O)CCCCCCCCCCCCCCCCCCC(=O)*; γGlu = O=C(O)[C@H](CCC(=O)[*:2])N[*:1]

T1: human amylin receptor (amylin 3(a) receptor: human calcitonin receptor with RAMP-3) (human, UniProt P30988 25-474; O60896 24-148)
T1 sequence (looked up) 1: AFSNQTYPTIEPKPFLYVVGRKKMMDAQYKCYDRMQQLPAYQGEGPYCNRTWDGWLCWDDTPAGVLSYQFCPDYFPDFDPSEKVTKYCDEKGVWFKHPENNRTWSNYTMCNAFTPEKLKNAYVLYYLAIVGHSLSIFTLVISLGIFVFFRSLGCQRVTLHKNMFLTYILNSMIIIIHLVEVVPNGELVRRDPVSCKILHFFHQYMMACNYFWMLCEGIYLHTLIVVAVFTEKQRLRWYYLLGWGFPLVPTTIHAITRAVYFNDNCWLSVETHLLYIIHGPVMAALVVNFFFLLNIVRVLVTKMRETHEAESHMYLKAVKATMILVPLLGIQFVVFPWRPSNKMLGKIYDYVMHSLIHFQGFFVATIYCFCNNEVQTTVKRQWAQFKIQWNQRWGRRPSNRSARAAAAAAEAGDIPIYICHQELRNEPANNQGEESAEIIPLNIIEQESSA
T1 sequence (looked up) 2: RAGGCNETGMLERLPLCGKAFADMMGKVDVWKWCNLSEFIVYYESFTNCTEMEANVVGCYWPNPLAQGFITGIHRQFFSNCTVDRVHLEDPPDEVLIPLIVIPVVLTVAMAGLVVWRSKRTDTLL

T2: human calcitonin receptor (human, UniProt P30988 25-474)
T2 sequence (looked up): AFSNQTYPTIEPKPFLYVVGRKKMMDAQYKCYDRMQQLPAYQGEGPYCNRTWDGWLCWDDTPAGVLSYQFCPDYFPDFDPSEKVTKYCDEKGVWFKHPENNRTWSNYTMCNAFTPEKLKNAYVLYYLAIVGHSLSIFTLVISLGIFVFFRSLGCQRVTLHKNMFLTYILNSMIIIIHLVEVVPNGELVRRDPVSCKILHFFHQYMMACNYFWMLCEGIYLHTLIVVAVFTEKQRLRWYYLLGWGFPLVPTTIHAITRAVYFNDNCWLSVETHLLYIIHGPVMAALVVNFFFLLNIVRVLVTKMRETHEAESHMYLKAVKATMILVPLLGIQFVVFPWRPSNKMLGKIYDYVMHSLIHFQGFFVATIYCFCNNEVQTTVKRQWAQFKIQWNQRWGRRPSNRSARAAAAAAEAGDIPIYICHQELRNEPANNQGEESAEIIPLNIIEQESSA

T3: human calcitonin receptor (human, UniProt P30988 25-474)
T3 construct: whole, on cells; Membranes in a scintillation proximity assay (Assay VII); also called hCTR; hCT
T3 sequence (looked up): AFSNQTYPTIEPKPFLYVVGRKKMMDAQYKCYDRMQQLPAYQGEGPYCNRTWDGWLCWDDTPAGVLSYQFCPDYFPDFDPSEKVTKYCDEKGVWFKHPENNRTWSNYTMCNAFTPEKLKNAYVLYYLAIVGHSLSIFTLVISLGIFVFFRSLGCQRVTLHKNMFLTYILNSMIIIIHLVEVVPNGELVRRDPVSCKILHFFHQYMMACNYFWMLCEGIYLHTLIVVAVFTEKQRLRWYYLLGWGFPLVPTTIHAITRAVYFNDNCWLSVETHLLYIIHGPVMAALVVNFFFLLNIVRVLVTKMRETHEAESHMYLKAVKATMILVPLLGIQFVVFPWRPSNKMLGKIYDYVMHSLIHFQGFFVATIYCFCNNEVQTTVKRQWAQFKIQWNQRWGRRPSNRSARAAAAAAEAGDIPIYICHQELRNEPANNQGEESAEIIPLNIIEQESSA


Key:
[1] = target: T1, human amylin receptor (amylin 3(a) …); experiment: cell-based or functional assay
[2] = target: T2, human calcitonin receptor; experiment: cell-based or functional assay
[3] = target: T1, human amylin receptor (amylin 3(a) …); experiment: SPA competition, displacement of 125I-rat amylin from membranes of BHK cells with the human amylin 3(a) receptor
Experimental: The binding assay was performed using scintillation proximity assay (SPA) beads (RPNQ0001) from PerkinElmer and cell membranes from the Amylin 3(a)/CRE-luc cells (as described in Assay (II)) were used. Membranes were prepared in the following way; the cells were rinsed with PBS and incubated with Versene for approximately 5 min before harvesting. The cells were flushed with PBS and the cell-suspension was centrifuged for 5 min at 1000 rpm. Cells were homogenized (ultrathurrax) in a buffer containing 20 mM Na-HEPES and 10 mM EDTA (pH 7.4) and centrifuged at 20.000 rpm for 15 min. The resulting pellet was resuspended, homogenized and centrifuged (20.000 rpm, 15 min) in a buffer containing 20 mM Na-HEPES and 0.1 mM EDTA (pH 7.4, buffer 2). The resulting pellet was resuspended in buffer 2 and protein concentration was measured (BCA protein Assay, Pierce). The homogenate was kept cold during the whole procedure. The membranes were kept at −80° C. until use. The assay was performed in a 384 well Optiplate (PerkinElmer) in a total volume of 40 ul. Membranes were mixed with SPA beads. Final concentration of membranes 35 ng/μL final and SPA beads was 0.05 mg/well. Test-compounds were dissolved in DMSO and further diluted in assay buffer (50 mM Hepes, pH 7.4, 1 mM CaCl2, 5 mM MgCl₂, 0.1% OA and 0.02% Tween20). […] The final mixture was incubated with shaking at 400 rpm for 120 min at 25° C. prior to centrifugation (1500 rpm, 10 min). Samples were analyzed on TopCounter™ (Packard). The IC₅₀ was calculated using (one site binding competition analysis) GraphPad Prism5 as a measure of receptor affinity.

[4] = target: T3, human calcitonin receptor; experiment: SPA competition binding, displacement of 125I-calcitonin from membranes with human calcitonin receptor (Assay VII)
Experimental: Membranes were prepared in the following way; the cells were rinsed with PBS and incubated with Versene for approximately 5 min before harvesting. The cells were flushed with PBS and the cell-suspension was centrifuged for 5 min at 1000 rpm. Cells were homogenized (Ultrathurrax) in a buffer containing 20 mM Na-HEPES and 10 mM EDTA (pH 7.4) and centrifuged at 20.000 rpm for 15 min. The resulting pellet was resuspended, homogenized and centrifuged (20.000 rpm, 15 min) in a buffer containing 20 mM Na-HEPES and 0.1 mM EDTA (pH 7.4, buffer 2). The resulting pellet was resuspended in buffer 2 and protein concentration was measured (BCA protein Assay, Pierce). The homogenate was kept cold during the whole procedure. The membranes were kept at −80° C. until use. Assay was performed in a 384 well Optiplate (PerkinElmer) in a total volume of 40 ul. Membranes were mixed with SPA beads. Final concentration of membranes 35 ng/μL final and Final concentration of SPA beads was 0.05 mg/well. Test-compounds were dissolved in DMSO and further diluted in assay buffer (50 mM Hepes, pH 7.4, 1 mM CaCl2, 5 mM MgCl₂, 0.1% OA and 0.02% Tween20). […] The final mixture was incubated for 120 min with shaking at 400 rpm at 25° C. prior to centrifugation (1500 rpm, 10 min). Samples were analyzed on TopCounter™ (Packard). The […] was calculated using (one site binding competition analysis) GraphPad Prism5 as a measure of receptor affinity.

Row | Binder | hAmylin-R funct. EC50 [1] | Ratio hCT/hAmylin funct. [2] | hCTR funct. EC50 [2] | IC50 [3] | IC50 [4]
1 | {C20 diacid-γGlu}-KCNTATCATQRLAEFLRHSSPNFGPILPPTNVGSNTP-NH2 (disulfide 2-7; SMILES CC[C@H](C)[C@H](NC(=O)[C@@H]1CCCN1C(=O)CNC(=O)[C@H](Cc1ccccc1)NC(=O)[C@H](CC(N)=O)NC(=O)[C@@H]1CCCN1C(=O)[C@H](CO)NC(=O)[C@H](CO)NC(=O)[C@H](Cc1c[nH]cn1)NC(=O)[C@H](CCCNC(=N)N)NC(=O)[C@H](CC(C)C)NC(=O)[C@H](Cc1ccccc1)NC(=O)[C@H](CCC(=O)O)NC(=O)[C@H](C)NC(=O)[C@H](CC(C)C)NC(=O)[C@H](CCCNC(=N)N)NC(=O)[C@H](CCC(N)=O)NC(=O)[C@@H](NC(=O)[C@H](C)NC(=O)[C@@H]1CSSC[C@H](NC(=O)[C@H](CCCCN)NC(=O)CC[C@H](NC(=O)CCCCCCCCCCCCCCCCCCC(=O)O)C(=O)O)C(=O)N[C@@H](CC(N)=O)C(=O)N[C@@H]([C@@H](C)O)C(=O)N[C@@H](C)C(=O)N[C@@H]([C@@H](C)O)C(=O)N1)[C@@H](C)O)C(=O)N[C@@H](CC(C)C)C(=O)N1CCC[C@H]1C(=O)N1CCC[C@H]1C(=O)N[C@H](C(=O)N[C@@H](CC(N)=O)C(=O)N[C@H](C(=O)NCC(=O)N[C@@H](CO)C(=O)N[C@@H](CC(N)=O)C(=O)N[C@H](C(=O)N1CCC[C@H]1C(N)=O)[C@@H](C)O)C(C)C)[C@@H](C)O, also called compound 4) | 0.06 nM | 1.2 | 0.07 nM | 0.321 nM | –
2 | {C20 diacid-γGlu}-KCNTATCATQRLAEFLRHSSPNFGPILPPTNVGSNTY-NH2 (disulfide 2-7; SMILES CC[C@H](C)[C@H](NC(=O)[C@@H]1CCCN1C(=O)CNC(=O)[C@H](Cc1ccccc1)NC(=O)[C@H](CC(N)=O)NC(=O)[C@@H]1CCCN1C(=O)[C@H](CO)NC(=O)[C@H](CO)NC(=O)[C@H](Cc1c[nH]cn1)NC(=O)[C@H](CCCNC(=N)N)NC(=O)[C@H](CC(C)C)NC(=O)[C@H](Cc1ccccc1)NC(=O)[C@H](CCC(=O)O)NC(=O)[C@H](C)NC(=O)[C@H](CC(C)C)NC(=O)[C@H](CCCNC(=N)N)NC(=O)[C@H](CCC(N)=O)NC(=O)[C@@H](NC(=O)[C@H](C)NC(=O)[C@@H]1CSSC[C@H](NC(=O)[C@H](CCCCN)NC(=O)CC[C@H](NC(=O)CCCCCCCCCCCCCCCCCCC(=O)O)C(=O)O)C(=O)N[C@@H](CC(N)=O)C(=O)N[C@@H]([C@@H](C)O)C(=O)N[C@@H](C)C(=O)N[C@@H]([C@@H](C)O)C(=O)N1)[C@@H](C)O)C(=O)N[C@@H](CC(C)C)C(=O)N1CCC[C@H]1C(=O)N1CCC[C@H]1C(=O)N[C@H](C(=O)N[C@@H](CC(N)=O)C(=O)N[C@H](C(=O)NCC(=O)N[C@@H](CO)C(=O)N[C@@H](CC(N)=O)C(=O)N[C@H](C(=O)N[C@@H](Cc1ccc(O)cc1)C(N)=O)[C@@H](C)O)C(C)C)[C@@H](C)O, also called compound 6) | 0.128 nM | 5.7 | 0.729 nM | 0.996 nM | –
3 | {C20 diacid-γGlu}-KCNTATCATQRLAEFLRHSSPNFGAPLSSTNVGSNTP-NH2 (disulfide 2-7; SMILES CC(C)C[C@H](NC(=O)[C@H](CCCNC(=N)N)NC(=O)[C@H](CCC(N)=O)NC(=O)[C@@H](NC(=O)[C@H](C)NC(=O)[C@@H]1CSSC[C@H](NC(=O)[C@H](CCCCN)NC(=O)CC[C@H](NC(=O)CCCCCCCCCCCCCCCCCCC(=O)O)C(=O)O)C(=O)N[C@@H](CC(N)=O)C(=O)N[C@@H]([C@@H](C)O)C(=O)N[C@@H](C)C(=O)N[C@@H]([C@@H](C)O)C(=O)N1)[C@@H](C)O)C(=O)N[C@@H](C)C(=O)N[C@@H](CCC(=O)O)C(=O)N[C@@H](Cc1ccccc1)C(=O)N[C@@H](CC(C)C)C(=O)N[C@@H](CCCNC(=N)N)C(=O)N[C@@H](Cc1c[nH]cn1)C(=O)N[C@@H](CO)C(=O)N[C@@H](CO)C(=O)N1CCC[C@H]1C(=O)N[C@@H](CC(N)=O)C(=O)N[C@@H](Cc1ccccc1)C(=O)NCC(=O)N[C@@H](C)C(=O)N1CCC[C@H]1C(=O)N[C@@H](CC(C)C)C(=O)N[C@@H](CO)C(=O)N[C@@H](CO)C(=O)N[C@H](C(=O)N[C@@H](CC(N)=O)C(=O)N[C@H](C(=O)NCC(=O)N[C@@H](CO)C(=O)N[C@@H](CC(N)=O)C(=O)N[C@H](C(=O)N1CCC[C@H]1C(N)=O)[C@@H](C)O)C(C)C)[C@@H](C)O, also called compound 5) | 0.162 nM | 1 | 0.16 nM | 0.374 nM | –
4 | {C20 diacid-γGlu}-KCNTATCATQRLAEFLRHSSPNFGAPLSSTNVGSNTY-NH2 (disulfide 2-7; SMILES CC(C)C[C@H](NC(=O)[C@H](CCCNC(=N)N)NC(=O)[C@H](CCC(N)=O)NC(=O)[C@@H](NC(=O)[C@H](C)NC(=O)[C@@H]1CSSC[C@H](NC(=O)[C@H](CCCCN)NC(=O)CC[C@H](NC(=O)CCCCCCCCCCCCCCCCCCC(=O)O)C(=O)O)C(=O)N[C@@H](CC(N)=O)C(=O)N[C@@H]([C@@H](C)O)C(=O)N[C@@H](C)C(=O)N[C@@H]([C@@H](C)O)C(=O)N1)[C@@H](C)O)C(=O)N[C@@H](C)C(=O)N[C@@H](CCC(=O)O)C(=O)N[C@@H](Cc1ccccc1)C(=O)N[C@@H](CC(C)C)C(=O)N[C@@H](CCCNC(=N)N)C(=O)N[C@@H](Cc1c[nH]cn1)C(=O)N[C@@H](CO)C(=O)N[C@@H](CO)C(=O)N1CCC[C@H]1C(=O)N[C@@H](CC(N)=O)C(=O)N[C@@H](Cc1ccccc1)C(=O)NCC(=O)N[C@@H](C)C(=O)N1CCC[C@H]1C(=O)N[C@@H](CC(C)C)C(=O)N[C@@H](CO)C(=O)N[C@@H](CO)C(=O)N[C@H](C(=O)N[C@@H](CC(N)=O)C(=O)N[C@H](C(=O)NCC(=O)N[C@@H](CO)C(=O)N[C@@H](CC(N)=O)C(=O)N[C@H](C(=O)N[C@@H](Cc1ccc(O)cc1)C(N)=O)[C@@H](C)O)C(C)C)[C@@H](C)O, also called compound 7) [N^α1-[(4S)-4-carboxy-4-(19-carboxynonadecanoylamino)butanoyl]-[Glu14,Arg17,Pro21,Pro26]-h-amylin] | 0.255 nM | 4.5 | 1.16 nM | 0.674 nM | –
5 | {C20 diacid-γGlu}-KCNTATCATQRLAEFLRHSSPNFGAILPSTNVGSETY-NH2 (disulfide 2-7, also called compound 33) | 0.243 nM | 2.2 | 0.528 nM | 0.915 nM | –
6 | K([γGlu-γGlu-C20 diacid])CNTATCATQRLA[dD]FLRHSSPNFGAIPSSTNVGSRTY-NH2 (disulfide 2-7 (inferred)) | – | – | – | – | 112 nM
